Data as given in paper PMC11068563, “The MCU and MCUb amino-terminal domains tightly interact: mechanisms for low conductance assembly of the mitochondrial calcium uniporter complex” (iScience, 2024).
Each block holds one molecule with its values, some of them ahead of it.

Legend:
[1] = target: MCU amino-terminal domain (MCU-NTD), MCU residues 72-189 (human) (UniProt Q8NE86); assay: cross-linking; 1 mM BS-3, 90 min, 20 mM HEPES (pH 8.4), 150 mM NaCl, 1 mM DTT, ambient temperature; proteins at 67.5 uM, mix with 67.5 uM or 33.8 uM of each; SDS-PAGE, Coomassie
[2] = target: MCU amino-terminal domain (MCU-NTD), MCU 72-189 (human) (UniProt Q8NE86); assay: SEC-MALS; 100 uL injected at 3.0 mg mL-1 (mixed sample: final 1.5 mg mL-1 of each component); Superdex 200 Increase 10/300 GL; 20 mM Tris (pH 8.5), 150 mM NaCl, 1 mM DTT, 10 C; with 5 mM CaCl2
[3] = target: MCU amino-terminal domain (MCU-NTD), MCU 72-189 (human) (UniProt Q8NE86); assay: SEC-MALS; 100 uL injected at 3.0 mg mL-1 (mixed sample: final 1.5 mg mL-1 of each component); Superdex 200 Increase 10/300 GL; 20 mM Tris (pH 8.5), 150 mM NaCl, 1 mM DTT, 10 C; with 5 mM MgCl2
[4] = target: MCU amino-terminal domain (MCU-NTD), MCU 72-189 (human) (UniProt Q8NE86); assay: SEC-MALS; 100 uL injected at 3.0 mg mL-1 (mixed sample: 3 mg mL-1 each mixed, final 1.5 mg mL-1 of each component); Superdex 200 Increase 10/300 GL; 20 mM Tris (pH 8.5), 150 mM NaCl, 1 mM DTT, 10 C; no divalent cations
[5] = target: T1, MCU-NTD-D147R, MCU 72-189 D147R (human, UniProt Q8NE86-1 72-189, D147R); assay: other fluorescence titration; steady-state fluorescein fluorescence; ~0.1 uM fluorescein-MCUb-NTD titrated with unlabelled MCU-NTD variant; 20 mM Tris (pH 8.5), 150 mM NaCl, 1 mM DTT, 0.0001% (v/v) NP-40; 22.5 C; one-site model; settings: both partners purified
T1 construct: mitochondrial calcium uniporter (MCU), Homo sapiens, GenBank NP_612366.1, N-terminal domain, residues 72-189, with D147R
T1 sequence (looked up): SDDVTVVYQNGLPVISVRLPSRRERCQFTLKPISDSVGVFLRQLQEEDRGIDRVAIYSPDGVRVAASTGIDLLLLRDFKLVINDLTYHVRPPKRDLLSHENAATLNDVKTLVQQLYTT

[6] = target: T1, MCU-NTD-D147R, MCU 72-189 D147R; assay: MST; ~0.5 uM Red-(NHS)-MCUb-NTD titrated with unlabelled MCU-NTD variant; 20 mM Tris (pH 8.5), 150 mM NaCl, 1 mM DTT, 0.05% (v/v) NP-40; 22 C; one-site model; settings: both partners purified

stoichiometry N [1]: 2
Molecule: MCU amino-terminal domain (MCU-NTD), MCU residues 72-189 (from UniProt Q8NE86-1 72-189) (domain or fragment)

stoichiometry N [2]: 0.96
stoichiometry N [3]: 1.05
stoichiometry N [4]: 0.98
Molecule: MCU amino-terminal domain (MCU-NTD), MCU 72-189 (from UniProt Q8NE86-1 72-189) (domain or fragment)

Kd [5]: 0.25 µM
B1: Fluorescein-MCUb-NTD (MCUb 58-159 labelled with fluorescein-MTS at Cys82 and Cys147) (domain or fragment, human, UniProt Q9NWR8 58-159, looked up)
chain: DEITVIYRHGLPLVTLTLPSRKERCQFVVKPMLSTVGSFLQDLQNEDKGIKTAAIFTADGNMISASTLMDILLMNDFKLVINKIAYDVQCPKREKPSNEHTA
modifications: fluorescein (fluorescein-methane thiosulfonate) on Cys82 and Cys147
notes: MCU dominant negative beta subunit (MCUb), Homo sapiens, GenBank NP_060388.2, N-terminal domain, residues 58-159; also called MCUb-NTD-fluorescein; source: E. coli BL21(DE3) codon plus, purified (Ni-NTA, thrombin, SEC); labelled with fluorescein-MTS; not shown: 6xHis, N-terminal, cleaved

Kd [6]: 11.3 µM
B2: Red-(NHS)-MCUb-NTD (MCUb 58-159 labelled with Red-NHS on primary amines) (domain or fragment, human, UniProt Q9NWR8 58-159, looked up)
chain: B1 chain
modifications: Red-NHS dye covalently linked to primary amines
notes: MCU dominant negative beta subunit (MCUb), Homo sapiens, GenBank NP_060388.2, N-terminal domain, residues 58-159; also called Red-(NHS)-labeled MCUb-NTD; source: E. coli BL21(DE3) codon plus, purified (Ni-NTA, thrombin, SEC); labelled with the RED-NHS labeling kit (NanoTemper); not shown: 6xHis, N-terminal, cleaved
